Data from paper PMC13061415, “A structural code for assembly specificity in GID/CTLH-type E3 ligases” (eLife, 2026).

Assays:
Conditions in all cases: both partners purified
[1] = target: T1, muskelin CTLH-CRA domain (205–735 Δ248–625) (rat, UniProt Q99PV3 205-735, Δ248–625); assay: ITC; muskelin CTLH-CRA (160 μM, syringe) titrated into RanBP10 or Twa1 CTLH-CRA variants (16 μM, cell); 25°C; 20 mM tricine pH 8.0, 500 mM NaCl, 1 mM TCEP; one-site model
T1 construct: muskelin, rat, fusion of the CTLH motif and the C-terminus (CRA^N-like): residues 205-735 with 248-625 deleted; also called muskelin wt; CTLH-Ct construct; source: E. coli BL21 CodonPlus (DE3) RIL, purified as described previously (van gen Hassend et al., 2023)

[2] = target: T2, Wdr26 CTLH-CRA domain (136-278) (mouse, UniProt Q8C6G8 136-278); assay: SEC-MALS; CTLH-CRA domain complexes co-expressed in E. coli and purified as complexes; Superdex 75 10/300 GL; 20 mM tricine pH 8.0, 500 mM NaCl, 1 mM TCEP
T2 construct: Wdr26, mouse, residues 136-278; Could not be purified on its own; source: E. coli BL21 CodonPlus (DE3) RIL, co-expressed with tagless Twa1_52, complex purified (Ni-IDA, 3C cleavage, SEC); not shown: His6, N-terminal, cleaved
T2 sequence (looked up): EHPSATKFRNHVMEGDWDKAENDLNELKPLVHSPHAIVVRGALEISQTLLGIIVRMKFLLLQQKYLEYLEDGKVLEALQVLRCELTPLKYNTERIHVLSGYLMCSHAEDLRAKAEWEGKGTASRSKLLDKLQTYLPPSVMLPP

[3] = target: muskelin CTLH-CRA domain co-expressed with Twa1_52 (rat); assay: as above
muskelin (1–735) = target: T3, muskelin (1–735) (rat, UniProt Q99PV3 1-735); assay: ITC; Twa1_52 CTLH-CRA (192 μM, syringe) titrated into muskelin (1–735) or Wdr26 (102–641) (19 μM, cell); 25°C; 20 mM tricine pH 8.0, 500 mM NaCl, 1 mM TCEP; one-site model
T3 construct: muskelin, rat, residues 1-735; also called full-length muskelin; tetrameric muskelin; source: E. coli BL21 CodonPlus (DE3) RIL, purified as described previously (van gen Hassend et al., 2023)

Wdr26 (102–641) = target: T4, Wdr26 (102–641) (mouse, UniProt Q8C6G8 102-641); assay: as above
T4 construct: Wdr26, mouse, residues 102-641; also called dimeric Wdr26; (near) full-length Wdr26; source: E. coli BL21 CodonPlus (DE3) RIL, purified as described previously (van gen Hassend et al., 2023)
T4 sequence (looked up): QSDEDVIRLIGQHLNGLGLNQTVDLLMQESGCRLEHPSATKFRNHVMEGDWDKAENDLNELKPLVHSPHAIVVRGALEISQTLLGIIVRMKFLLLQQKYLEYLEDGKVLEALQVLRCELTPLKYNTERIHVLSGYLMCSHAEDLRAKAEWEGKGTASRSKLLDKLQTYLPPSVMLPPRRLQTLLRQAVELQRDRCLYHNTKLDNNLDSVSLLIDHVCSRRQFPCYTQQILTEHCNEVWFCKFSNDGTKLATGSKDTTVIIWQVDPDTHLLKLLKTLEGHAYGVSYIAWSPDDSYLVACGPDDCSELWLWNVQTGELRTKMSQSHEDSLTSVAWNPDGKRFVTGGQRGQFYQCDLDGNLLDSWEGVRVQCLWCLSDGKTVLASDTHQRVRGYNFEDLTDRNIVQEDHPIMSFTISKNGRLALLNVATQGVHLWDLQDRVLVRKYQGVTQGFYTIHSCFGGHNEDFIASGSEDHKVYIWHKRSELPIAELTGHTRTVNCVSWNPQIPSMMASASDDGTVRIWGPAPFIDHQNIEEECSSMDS

T3 sequence (Q99PV3 whole entry, the tested form may be a part): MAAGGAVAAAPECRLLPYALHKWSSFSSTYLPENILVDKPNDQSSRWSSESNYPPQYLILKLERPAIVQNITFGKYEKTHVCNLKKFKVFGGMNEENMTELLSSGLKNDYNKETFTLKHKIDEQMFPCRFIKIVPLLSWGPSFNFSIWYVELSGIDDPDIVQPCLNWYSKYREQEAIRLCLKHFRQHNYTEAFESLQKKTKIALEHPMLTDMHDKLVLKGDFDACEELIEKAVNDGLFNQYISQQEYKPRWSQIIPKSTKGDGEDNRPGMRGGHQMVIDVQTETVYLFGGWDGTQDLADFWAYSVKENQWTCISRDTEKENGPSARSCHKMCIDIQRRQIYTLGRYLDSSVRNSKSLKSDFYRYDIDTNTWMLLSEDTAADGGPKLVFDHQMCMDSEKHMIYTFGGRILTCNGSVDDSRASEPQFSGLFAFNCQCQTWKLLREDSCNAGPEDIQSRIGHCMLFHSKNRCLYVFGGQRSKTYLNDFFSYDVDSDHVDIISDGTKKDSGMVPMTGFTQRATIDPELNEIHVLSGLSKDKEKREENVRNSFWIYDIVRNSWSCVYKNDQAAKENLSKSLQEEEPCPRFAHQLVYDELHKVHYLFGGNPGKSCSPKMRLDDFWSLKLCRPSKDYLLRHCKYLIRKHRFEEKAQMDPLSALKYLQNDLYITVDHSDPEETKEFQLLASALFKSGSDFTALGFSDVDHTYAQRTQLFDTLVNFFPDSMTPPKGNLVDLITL
T1 sequence (Q99PV3 other isoform, or with tags, fused parts or gaps Δ248–625 | Δ248–625 | mutant): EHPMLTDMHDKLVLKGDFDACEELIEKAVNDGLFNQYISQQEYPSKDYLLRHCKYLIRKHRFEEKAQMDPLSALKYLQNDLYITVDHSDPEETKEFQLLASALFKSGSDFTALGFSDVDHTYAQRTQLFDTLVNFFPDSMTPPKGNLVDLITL
muskelin CTLH-CRA domain co-expressed with Twa1_52 (rat), sequence (chain, as listed by the source): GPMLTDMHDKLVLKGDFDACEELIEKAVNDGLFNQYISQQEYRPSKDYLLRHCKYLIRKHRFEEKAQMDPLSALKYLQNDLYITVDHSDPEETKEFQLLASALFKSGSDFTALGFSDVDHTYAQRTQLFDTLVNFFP

B1: Twa1_52 mutant (A125G, Q126R, Δ127T, L140K, E144K, L147F, F152Y, F160V), CTLH-CRA domain (domain or fragment, mouse, UniProt Q9D7M1 58-190, looked up)
chain: SVDLETLDERIKIREMILKGQIQEAIALINSLHPELLDTNRYLYFHLQQQHLIELIRQRETEAALEFGRQLAEQGEESRECKTEMKRTFALLAYDSPEESPVGDLLHMMQRQKVWSEVNQAVLDYENRESTP
notes: Twa1, mouse, CTLH-CRA domain 58-190 with eight changes; source: E. coli BL21 CodonPlus (DE3) RIL, purified (Ni-IDA, 3C cleavage, SEC); also tagless, co-expressed with muskelin or Wdr26 CTLH-CRA domain; not shown: His6, N-terminal, cleaved
Kd [1]: 146 nM
stoichiometry N [2]: 1
stoichiometry N [3]: 1
Kd (muskelin (1–735)): 17.9 nM
Kd (Wdr26 (102–641)): 15.9 nM
